Key:
[1] = target: T1, NEF peptide on HLA-A*24:02 (human); assay: cytokine release
T1 peptide: RYPLTFGWCF

[2] = target: T2, WT1 peptide on HLA-A*02:01 (human); assay: activation reporter or marker
T2 peptide: RMFPNAPYL

B1: FE11 γδTCR (TCR, V domains shown)
Vgamma: SSNLEGGTKSVTRPTRSSAEITCDLTVINAFYIHWYLHQEGKAPQRLLYYDVSNSKDVLESGLSPGKYYTHTPRRWSWILILRNLIENDSGVYYCATWDRPEIYYKKLFGSGTTLVVT
Vdelta: not shown
B1: no recognition [1]; no recognition [2].

From patent US20230248770A1 (published 2023)
